Entries after “also recorded” stand apart in the source; their conditions may differ. Where no end group is shown, it is not given here. [ ]: non-standard residue; d: D form. Met(O) = CS(=O)CC[C@H](N)C(=O)O
How the values were obtained:
[1] = target: T1, full-length receptor protein expressed CHO cells (CHO-19P2); human pituitary receptor protein (hGR3) (Homo sapiens, UniProt P49683); assay: release of arachidonic acid metabolites from CHO-19P2 cells; format: cell-based; settings: for arachidonic acid metabolite-releasing activity: amount of [3H]arachidonic acid metabolites, 10^−12 M-10^−6 M in 0.05% BSA-HBSS
T1 construct: to construct a full-length receptor protein expression plasmid pAKKO-19P2; expressed in transfected cells; host or cells: CHO dhfr- cells transfected with pAKKO-19P2 (CHO-19P2; clone CHO-19P2-9)
T1 sequence (P49683 1-370): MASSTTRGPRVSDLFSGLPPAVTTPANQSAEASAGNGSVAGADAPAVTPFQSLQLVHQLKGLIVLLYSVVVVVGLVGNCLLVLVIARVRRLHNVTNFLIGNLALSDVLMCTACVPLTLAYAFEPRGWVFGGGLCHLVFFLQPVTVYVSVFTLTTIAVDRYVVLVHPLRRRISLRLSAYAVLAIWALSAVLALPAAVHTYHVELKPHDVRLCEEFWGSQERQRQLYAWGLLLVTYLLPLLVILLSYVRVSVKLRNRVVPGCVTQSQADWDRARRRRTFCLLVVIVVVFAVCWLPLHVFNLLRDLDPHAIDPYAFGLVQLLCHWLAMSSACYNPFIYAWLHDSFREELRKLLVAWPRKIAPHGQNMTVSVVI
Method: The full-length receptor protein-expressed CHO cells and mock CHO cells were seeded in a 24-well plate, 0.5×10^5 cells/well, and cultured for 24 hours. Then, [^3H] arachidonic acid was added at a final concentration of 0.25 μCi/well. Sixteen (16) hours after addition of [^3H] arachidonic acid, the cells were rinsed with 0.05% BSA-HBSS and the above-mentioned crude peptide fraction was added, 400 μl/well. The mixture was incubated at 37° C. for 30 minutes and a 300 μl portion of the reaction mixture (400 μl) was added to 4 ml of a scintillator and the amount of [^3H] arachidonic acid metabolite released into the reaction mixture was determined with a scintillation counter.
The activity of the peptide (19P2-L31) synthesized in Example 21 to specifically release arachidonic acid metabolites from CHO-19P2 cells was assayed in the same manner as Example 11. The synthetic peptide was dissolved in degassed dH20 at a concentration of 10^−3M and diluted with 0.05% BSA-HBSS and the activity to promote release of arachidonic acid metabolites from CHO-19P2 cells at each concentration was assayed using the amount of [^3H]arachidonic acid metabolites as the indicator.
The activity of the synthetic equivalent (19P2-L20) of natural peptide P-2 as synthesized in Example 23 to specifically promote release of arachidonic acid metabolites from CHO-19P2 cells was determined as in Example 11. Thus, the synthetic peptide was dissolved in degassed dH2O at a final concentration of 10^−3M and this solution was serially diluted with 0.05% BAS-HBSS. The activity to specifically promote release of arachidonic acid metabolites from CHO-19P2 cells at each concentration was assayed using the amount of [^3H]arachidonic acid metabolites as the indicator.

[2] = plasma growth hormone (GH) level in freely moving rats, GHRH-induced; format: in vivo, male Wistar rats; settings: 5 μg/kg GHRH intravenously
Method: Mature male Wistar rats were anesthetized with pentobarbital 50 mg/kg i.p. and, as in Example 41, a stainless-steel guide cannula AG-12 (0.4 mm in. dia., 0.5 mm out. dia., EICOM) was implanted in position with its tip situated in the upper part of the third ventricle. After the operation the rats were housed in individual cages and kept for at least 3 days for recuperation and, then, a cannula (30 cm long, 0.5 mm in. dia., 0.9 mm out. dia., Natsume Seisakusho) filled with heparin (200 U/ml)-containing saline was inserted into the right atrium from the right jugular vein under pentobarbital anesthesia. The rats were maintained overnight for complete arousal from anesthesia and then transferred to transparent acrylic cages (30 cm×30 cm×35 cm). A 1 ml tuberculin syringe with a 24-G needle (both by Termo) was connected to the cannula inserted in the atrium and 300 μl of blood was drawn. To prevent clotting, the syringe was filled with 20 μl of saline containing 200 U/ml of heparin beforehand. […] The concentrations of GH in the plasma were determined by radioimmunoassay.
The results were expressed as a mean±S.E.M. To test for significant difference between the group treated with 19P2-L31 dissolved in PBS and the control group treated with PBS alone, Student's t-test was used. […]

| Substance | arachidonic acid metabolite-releasing activity compared with that of 19P2-L31 [1] | arachidonic acid metabolite-releasing activity [1] | plasma GH level [2] |
| --- | --- | --- | --- |
| 19P2-L31(O): the methionine-oxidation product of 19P2-L31 synthesized in Example 22 (SRAHQHS[Met(O)]EIRTPDINPAWYAGRGIRPVGRF-NH2; N-terminus assumed; SMILES CC[C@H](C)[C@H](NC(=O)CNC(=O)[C@H](CCCNC(=N)N)NC(=O)CNC(=O)[C@H](C)NC(=O)[C@H](Cc1ccc(O)cc1)NC(=O)[C@H](Cc1c[nH]c2ccccc12)NC(=O)[C@H](C)NC(=O)[C@@H]1CCCN1C(=O)[C@H](CC(N)=O)NC(=O)[C@@H](NC(=O)[C@H](CC(=O)O)NC(=O)[C@@H]1CCCN1C(=O)[C@@H](NC(=O)[C@H](CCCNC(=N)N)NC(=O)[C@@H](NC(=O)[C@H](CCC(=O)O)NC(=O)[C@H](CCS(C)=O)NC(=O)[C@H](CO)NC(=O)[C@H](Cc1c[nH]cn1)NC(=O)[C@H](CCC(N)=O)NC(=O)[C@H](Cc1c[nH]cn1)NC(=O)[C@H](C)NC(=O)[C@H](CCCNC(=N)N)NC(=O)[C@@H](N)CO)[C@@H](C)CC)[C@@H](C)O)[C@@H](C)CC)C(=O)N[C@@H](CCCNC(=N)N)C(=O)N1CCC[C@H]1C(=O)N[C@H](C(=O)NCC(=O)N[C@@H](CCCNC(=N)N)C(=O)N[C@@H](Cc1ccccc1)C(N)=O)C(C)C) | equivalent to the activity of 19P2-L31 | found in a dose-dependent manner |  |
| GHRH: Growth hormone releasing hormone (YADAIFTNSYRKVLGQLSARKLLQDIMSRQQGESNQERGARARL; ends and bridges not checked; UniProt P01286 32-75, looked up) [reference compound] |  |  | elevated the plasma GH level |
| Thr-Pro-Asp-Ile-Aln-Pro-Ala-Trp-Tyr-Ala-Gly-Arg-Gly-Ile-Arg-Pro-Val-Gly-Arg-Phe-NH2 (TPDINPAWYAGRGIRPVGRF-NH2; also: position 5 written 'Aln' in name, letter N) [19P2-L20] | in nearly the same degree as 19P2-L31 | concentration-dependent arachidonic acid metabolite-releasing activity was detected over the range of 10^−12-10^−6M; also recorded: found in a dose-dependent manner |  |
